From publication PMC10902388 (Nature Communications, 2024)
Where a chain is given by its changes, count along the chain named. Numbers in names are those of the source.

B1: MBP-16E6(4C4S) F76A (natural protein)
chain: MHQKRTAMFQDPQERPRKLPQLCTELQTTIHDIILECVYCKQQLLRREVYDFAFRDLCIVYRDGNPYAVCDKCLKAYSKISEYRHYSYSLYGTTLEQQYNKPLSDLLIRCINCQKPLSPEEKQRHLDKKQRFHNIRGRWTGRCMSCSRSSRTRRETQL
notes: Mutant of m2; source: E. coli BL21(DE3), purified (MBPTrap, SEC); not shown: MBP, N-terminal, kept
B2: MBP-16E6(4C4S) Y77A (natural protein)
chain: B1 chain with A76F, Y77A
notes: as for B1
B3: MBP-16E6(4C4S) S89A (natural protein)
chain: B1 chain with A76F, S89A
notes: as for B1
B4: MBP-16E6(4C4S) R62A (natural protein)
chain: B1 chain with R62A, A76F
notes: as for B1
B5: MBP-16E6(4C4S) L57A (natural protein)
chain: B1 chain with L57A, A76F
B6: MBP-16E6(4C4S) R84A (natural protein)
chain: B1 chain with A76F, R84A
notes: as for B1
B7: MBP-16E6(4C4S) R84E (natural protein)
chain: B1 chain with A76F, R84E
notes: as for B1
B8: MBP-16E6(4C4S) Y88A (natural protein)
chain: B1 chain with A76F, Y88A
notes: as for B1
B9: MBP-16E6(4C4S) Y86A (natural protein)
chain: B1 chain with A76F, Y86A
notes: as for B1

Assays:
[1] = target: T1, full-length human E6AP (C-terminal TEV-6xHis-Avi) (human, UniProt Q05086 1-875, biotin on the Avi tag (BirA biotin-protein ligase) in the SPR experiments); test: SPR; conditions: both partners purified
T1 construct: also called UBE3A; biotin-E6AP
T1 sequence (Q05086 whole entry): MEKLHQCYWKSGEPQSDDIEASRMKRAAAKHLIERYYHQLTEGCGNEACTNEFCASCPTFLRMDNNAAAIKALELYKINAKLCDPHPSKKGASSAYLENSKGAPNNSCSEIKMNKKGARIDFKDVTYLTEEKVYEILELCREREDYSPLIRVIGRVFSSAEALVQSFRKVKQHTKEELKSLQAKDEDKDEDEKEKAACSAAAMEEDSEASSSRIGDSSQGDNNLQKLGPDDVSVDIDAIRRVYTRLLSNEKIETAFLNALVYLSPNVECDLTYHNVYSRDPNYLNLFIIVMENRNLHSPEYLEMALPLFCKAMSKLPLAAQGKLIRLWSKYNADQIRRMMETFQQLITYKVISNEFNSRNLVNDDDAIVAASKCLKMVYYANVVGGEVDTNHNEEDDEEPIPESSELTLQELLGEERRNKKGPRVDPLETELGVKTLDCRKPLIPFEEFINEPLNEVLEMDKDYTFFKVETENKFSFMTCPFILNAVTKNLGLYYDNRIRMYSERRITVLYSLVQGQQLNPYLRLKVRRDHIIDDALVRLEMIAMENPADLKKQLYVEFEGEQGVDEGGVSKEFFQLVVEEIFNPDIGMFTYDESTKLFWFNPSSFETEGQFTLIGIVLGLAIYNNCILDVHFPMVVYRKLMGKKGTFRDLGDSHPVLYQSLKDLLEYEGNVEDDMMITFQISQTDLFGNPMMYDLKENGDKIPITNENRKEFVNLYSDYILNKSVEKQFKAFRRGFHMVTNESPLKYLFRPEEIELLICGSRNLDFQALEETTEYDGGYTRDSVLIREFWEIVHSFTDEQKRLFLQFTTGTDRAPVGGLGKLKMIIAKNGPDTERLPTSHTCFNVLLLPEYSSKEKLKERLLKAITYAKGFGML

[2] = target: T1, full-length human E6AP (C-terminal …); test: cell-based or functional assay

Binder | Kd [1] [nM] | unmodified E6AP remaining at 30 min, E6AP autoubiquitination [2] [%] | unmodified p53 remaining at 30 min, in vitro ubiquitination of full-length p53 [2] [%] | unmodified E6AP remaining after 30 min, E6AP autoubiquitination [2] [%]
B1 | 8.5 | 82 | 59.5 | –
B2 | 0.742 | 21.6 | 22.4 | –
B3 | 1.71 | 33.1 | 57.3 | –
B4 | 2.2 | – | – | 9.3
B5 | – | – | – | 45.6
B6 | 34.4 | – | – | 64.9
B7 | 195 | – | – | 64.9
B8 | 5.4 | 21.2 | 19.2 | –
B9 | 6.3 | 56.5 | 44.2 | –
